2 molecules from patent US20190328898A1 (AGENSYS, published 2019) can be followed below.

Assay [1] addresses T1, 161P2F10B protein (human, UniProt O14638 1-875).
T1 construct: 875 amino acid ORF cloned from kidney cancer patient specimens; Assayed on cells: recombinant on 3T3-161P2F10B cells, endogenous on Ku812/KU812, UGK-3 and RXF-393 cells; also called 161P2F10B antigen; cell surface 161P2F10B
T1 sequence: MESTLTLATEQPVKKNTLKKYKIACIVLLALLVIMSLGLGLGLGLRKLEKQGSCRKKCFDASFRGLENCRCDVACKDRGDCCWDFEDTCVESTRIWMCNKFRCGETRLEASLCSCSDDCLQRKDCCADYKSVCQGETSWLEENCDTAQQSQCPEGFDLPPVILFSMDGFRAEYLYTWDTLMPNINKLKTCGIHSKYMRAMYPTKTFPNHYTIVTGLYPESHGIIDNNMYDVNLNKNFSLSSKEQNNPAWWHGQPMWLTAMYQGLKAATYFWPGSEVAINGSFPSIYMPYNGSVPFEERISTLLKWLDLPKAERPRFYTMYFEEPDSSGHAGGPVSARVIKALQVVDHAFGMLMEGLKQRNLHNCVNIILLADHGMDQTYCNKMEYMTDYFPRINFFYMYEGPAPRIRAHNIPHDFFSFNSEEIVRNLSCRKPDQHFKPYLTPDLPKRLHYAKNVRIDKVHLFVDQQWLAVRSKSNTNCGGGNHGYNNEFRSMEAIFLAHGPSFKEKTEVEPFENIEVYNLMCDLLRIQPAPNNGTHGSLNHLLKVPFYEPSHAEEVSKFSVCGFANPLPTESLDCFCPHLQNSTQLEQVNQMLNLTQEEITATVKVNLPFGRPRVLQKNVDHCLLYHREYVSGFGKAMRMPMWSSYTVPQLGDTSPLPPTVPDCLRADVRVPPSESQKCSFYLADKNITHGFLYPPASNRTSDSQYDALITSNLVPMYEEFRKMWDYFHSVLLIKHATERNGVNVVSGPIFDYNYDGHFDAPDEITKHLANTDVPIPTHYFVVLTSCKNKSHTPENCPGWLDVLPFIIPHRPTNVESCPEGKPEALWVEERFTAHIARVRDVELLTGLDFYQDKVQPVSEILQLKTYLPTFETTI
Nature of the assay: FACS saturation binding on Ku812 cells, one site fit of MFI. As to the method:
FIG. 6. Cell Binding and Affinity of H16-7.8 and H16-7.8mcMMAF. H16-7.8 and H16-7.8mcMMAF were tested for the binding affinity to 161P2F10B endogenously expressed on Ku812 cells. Briefly, eleven (11) dilutions of H16-7.8 or H16-7.8mcMMAF were incubated with Ku812 cells (50,000 cells per well) overnight at 4° C. at a final concentration of 160 nM to 0.0001 nM. At the end of the incubation, cells were washed and incubated with anti-hIgG-PE detection antibody for 45 min at 4° C. After washing the unbound detection antibodies, the cells were analyzed by FACS. Mean Florescence Intensity (MFI) values are obtained (See, Table IV). MFI values were entered into Graphpad Prisim software and analyzed using the one site binding (hyperbola) equation of Y=Bmax*X/(Kd+X) to generate H16-7.8 or H16-7.8mcMMAF saturation curves shown in FIG. 6. […]
H16-7.8 and H16-7.8mcMMAF were tested for the binding affinity to 161P2F10B endogenously expressed on Ku812 cells. […] After washing the unbound detection antibodies, the cells are analyzed by FACS. […] MFI values were entered into Graphpad Prisim software and analyzed using the one site binding (hyperbola) equation of Y=Bmax*X/(Kd+X) to generate H16-7.8 or H16-7.8mcMMAF saturation curves shown in FIG. 6. […]

The target of assay [2] is T1, 161P2F10B protein. Kind of assay: FACS saturation binding on KU812 cells, twelve dilutions, one site fit, n=4. The procedure: H16-7.8 and H16-7.8mcMMAF were tested for their binding affinity to 161P2F10B expressed on KU812 cells (human chronic myelogenous leukemia cells, ATCC). Briefly, twelve (12) dilutions of H16-7.8 or H16-7.8mcMMAF were incubated with KU812 cells (50,000 cells per well) overnight at 4° C. at a final concentration of 160 nM to 0.004 nM. At the end of the incubation, cells are washed and incubated with anti-hIgG-PE detection antibody for 45 min at 4° C. After washing the unbound detection antibodies, the cells are analyzed by FACS.
MFI values were entered into Graphpad Prisim software and analyzed using the one site binding (hyperbola) equation of Y=Bmax*X/(Kd+X) to generate H16-7.8 and H16-7.8mcMMAF saturation curves. Bmax is the MFI value at maximal binding of H16-7.8 or H16-7.8mcMMAF to KU812; Kd is H16-7.8 or H16-7.8mcMMAF binding affinity which are the concentration of H16-7.8 or H16-7.8mcMMAF required to reach halfmaximal binding. […] (n=4).

Assay [3] addresses T1, 161P2F10B protein. Kind of assay: cell-based or functional assay.

B1: H16-7.8mcMMAF (antibody, V domains shown)
VH: QVQLQESGPGLVKPSQTLSLTCTVSGGSISSGGYYWSWIRQHPGKGLEWIGIIYYSGSTYYNPSLKSRVTISVDTSKNQFSLKLNSVTAADTAVFYCARVAIVTTIPGGMDVWGQGTTVTVSS
VL: EIVLTQSPDFQSVTPKEKVTITCRASQSIGISLHWYQQKPDQSPKLLIKYASQSFSGVPSRFSGSGSGTDFTLTINSLEAEDAATYYCHQSRSFPWTFGQGTKVEIKR
modifications: mcMMAF on the cysteine of peptide S208FNRGEC214 in part of the chains (0 or 1 drug per L chain); mcMMAF (maleimidocaproyl-monomethyl auristatin F) on cysteine thiols after partial reduction; predominantly 2 drugs on the hinge peptide C225-K250; 0 to 5 drugs per H chain observed; overall DAR 4.0
notes: a mixture of drug loadings, predominant species 4 drugs; also called H16-7.8mcMMAF ADC; ADC H16-7.8mcMMAF
By Kd is commonly meant a measure of binding affinity in units of concentration. A higher Kd goes with lower affinity. With B1, in the assay with 161P2F10B protein [1], the Kd worked out at 190 pM. This molecule also showed a Kd with 161P2F10B protein [2] of 250 pM. Also, in the assay with 161P2F10B protein [3], the “IC 50, inhibition of proliferation of KU812 cells (Alamar blue, 6 days), Lot (1)” value is 200 pM; the “IC 50, inhibition of proliferation of KU812 cells (Alamar blue, 6 days), Lot (2)” value turned out to be 100 pM; the “Specific cytotoxicity activity on KU812 cells, IC50 (Alamar Blue, 6 days)” value was 150 pM.

B2: 161P2F10B MAb H16-7.8 (antibody, V domains shown)
VH: B1 VH
VL: B1 VL
notes: Fully human IgG2 kappa from XenoMouse; also called native H16-7.8; recombinant H16-7.8
With B2, the Kd turned out to be 60 pM with 161P2F10B protein [1] and 80 pM with 161P2F10B protein [2].
